These results are taken from publication PMC4114212 (Science signaling, 2012).

Like-named read-outs stand apart in the source and are kept apart here.

Data set [1] deals with the molecule itself. Put plainly: crystal structure.
Data set [2] deals with the molecule itself. Put plainly: crystal structure. The source holds these as a separate data set.
The target of data set [3] is T1, Cardif peptide (residues 138 to 158) used for cocrystallization with TRAF3.
T1 peptide: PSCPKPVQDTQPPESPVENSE
Put plainly: crystal structure.

Data set [4] addresses T2, TRAF domain of mouse TRAF3 (residues 376 through the C terminus), wild type (mouse, UniProt Q60803 376-567).
T2 sequence (looked up): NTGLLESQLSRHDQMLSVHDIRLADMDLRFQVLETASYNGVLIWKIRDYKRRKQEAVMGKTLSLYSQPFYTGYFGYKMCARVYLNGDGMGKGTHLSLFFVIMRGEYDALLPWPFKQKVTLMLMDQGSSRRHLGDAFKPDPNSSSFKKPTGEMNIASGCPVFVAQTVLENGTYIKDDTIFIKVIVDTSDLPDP
Put plainly: pull-down.

B1: TRAF domain of TRAF5, crystallised construct (residues 381 through the C-terminal end) (domain or fragment, mouse, UniProt P70191 381-558, looked up)
chain: NIHKAQLNKNEERFKQLEGACYSGKLIWKVTDYRVKKREAVEGHTVSVFSQPFYTSRCGYRLCARAYLNGDGSGKGTHLSLYFVVMRGEFDSLLQWPFRQRVTLMLLDQSGKKNHIVETFKADPNSSSFKRPDGEMNIASGCPRFVSHSTLENSKNTYIKDDTLFLKVAVDLTDLEDL
B1: the “stoichiometry N” value in “crystal structure [1]” stood at 3.

B2: recombinant TRAF domain of TRAF3 (residues 376 to 565), shortened by trypsin for crystallisation (domain or fragment, mouse, UniProt Q60803 376-565, looked up)
chain: NTGLLESQLSRHDQMLSVHDIRLADMDLRFQVLETASYNGVLIWKIRDYKRRKQEAVMGKTLSLYSQPFYTGYFGYKMCARVYLNGDGMGKGTHLSLFFVIMRGEYDALLPWPFKQKVTLMLMDQGSSRRHLGDAFKPDPNSSSFKKPTGEMNIASGCPVFVAQTVLENGTYIKDDTIFIKVIVDTSDLP
In the case of B2, the “stoichiometry N” value came out at 3 in “crystal structure [2]” and 1 in data set [3]. In the case of PSCPKPVQDTQPPESP [GST-tagged Cardif peptide, residues 138 to 153 (encompasses T2BM)], in data set [4], the binding result is listed as “binds”.
